From US20190309079A1 (Regeneron, published 2019)

Target: T1, wild-type LEPR on HEK293 reporter cells (UniProt P48357 22-1165, limits assumed)
T1 sequence (looked up): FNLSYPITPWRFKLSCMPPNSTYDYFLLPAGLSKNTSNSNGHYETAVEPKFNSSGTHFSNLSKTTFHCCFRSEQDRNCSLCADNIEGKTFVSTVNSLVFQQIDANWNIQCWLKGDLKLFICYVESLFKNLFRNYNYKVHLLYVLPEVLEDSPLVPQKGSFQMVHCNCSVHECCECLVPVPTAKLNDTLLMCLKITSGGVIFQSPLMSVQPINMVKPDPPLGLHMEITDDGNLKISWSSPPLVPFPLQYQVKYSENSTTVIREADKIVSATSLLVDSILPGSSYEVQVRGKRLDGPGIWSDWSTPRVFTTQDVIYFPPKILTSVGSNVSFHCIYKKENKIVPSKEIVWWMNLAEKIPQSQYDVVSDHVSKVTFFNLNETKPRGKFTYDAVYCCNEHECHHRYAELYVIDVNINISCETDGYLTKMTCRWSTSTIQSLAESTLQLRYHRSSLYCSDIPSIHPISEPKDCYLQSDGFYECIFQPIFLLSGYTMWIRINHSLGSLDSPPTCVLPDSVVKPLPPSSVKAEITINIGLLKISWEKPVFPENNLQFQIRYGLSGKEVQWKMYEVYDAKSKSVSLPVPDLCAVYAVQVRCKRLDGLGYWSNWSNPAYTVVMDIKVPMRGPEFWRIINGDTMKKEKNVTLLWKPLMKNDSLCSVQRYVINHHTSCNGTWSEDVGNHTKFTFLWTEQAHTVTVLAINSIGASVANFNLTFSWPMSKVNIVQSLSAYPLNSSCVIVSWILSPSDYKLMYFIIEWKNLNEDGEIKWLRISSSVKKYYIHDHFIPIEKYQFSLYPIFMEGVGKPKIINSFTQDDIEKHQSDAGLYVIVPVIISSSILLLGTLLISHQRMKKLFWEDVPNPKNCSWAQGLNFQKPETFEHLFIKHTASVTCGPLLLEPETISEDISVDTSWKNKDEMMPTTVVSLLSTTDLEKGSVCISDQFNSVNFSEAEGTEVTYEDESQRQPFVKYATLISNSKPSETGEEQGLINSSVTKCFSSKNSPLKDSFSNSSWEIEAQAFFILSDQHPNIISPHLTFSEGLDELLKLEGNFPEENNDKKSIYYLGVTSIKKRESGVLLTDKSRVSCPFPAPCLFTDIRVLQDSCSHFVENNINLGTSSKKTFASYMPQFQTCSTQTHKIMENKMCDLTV
Assay: cell-based or functional assay

B1: H4H16679P2 (antibody, V domains shown)
VH: QVQLVESGGGVVQPGRSLRLSCTASGFTFSSYAMYWVRQAPGKGLEWVSVIYYDGSYKYYADSVKGRFTISRDNSKNTLYLQMDSLRAEDTAVYYCASYNWNYWYFDFWGRGTLVTVSS
VL: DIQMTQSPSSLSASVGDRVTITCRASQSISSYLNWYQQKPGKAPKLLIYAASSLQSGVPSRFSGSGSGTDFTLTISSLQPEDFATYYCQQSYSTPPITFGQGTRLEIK
**Q.** With B1 as the binder, how does the “EC50 (read off the curve), pSTAT3 Y705/STAT3 densitometry” value read?
**A.** ~3e-10 M
